Test results published in patent publication US20110190196A1 (University of California, published 2011).
Where two headings read alike, the source gives them in different places.

How the values were obtained:
Assay in all cases: cell-based or functional assay
[1] = target: T1, ATP-binding cassette transporter A1 (ABCA1) (UniProt P41233 1-2261, limits assumed)
[2] = target: T1, ATP-binding cassette transporter A1 …; remark: listed apart in the source
[3] = target: T1, ATP-binding cassette transporter A1 …; remark: listed apart in the source
[4] = target: T1, ATP-binding cassette transporter A1 …; remark: listed apart in the source
[5] = target: T1, ATP-binding cassette transporter A1 …; remark: listed apart in the source
[6] = target: T1, ATP-binding cassette transporter A1 …; remark: listed apart in the source

T1 sequence (P41233 whole entry): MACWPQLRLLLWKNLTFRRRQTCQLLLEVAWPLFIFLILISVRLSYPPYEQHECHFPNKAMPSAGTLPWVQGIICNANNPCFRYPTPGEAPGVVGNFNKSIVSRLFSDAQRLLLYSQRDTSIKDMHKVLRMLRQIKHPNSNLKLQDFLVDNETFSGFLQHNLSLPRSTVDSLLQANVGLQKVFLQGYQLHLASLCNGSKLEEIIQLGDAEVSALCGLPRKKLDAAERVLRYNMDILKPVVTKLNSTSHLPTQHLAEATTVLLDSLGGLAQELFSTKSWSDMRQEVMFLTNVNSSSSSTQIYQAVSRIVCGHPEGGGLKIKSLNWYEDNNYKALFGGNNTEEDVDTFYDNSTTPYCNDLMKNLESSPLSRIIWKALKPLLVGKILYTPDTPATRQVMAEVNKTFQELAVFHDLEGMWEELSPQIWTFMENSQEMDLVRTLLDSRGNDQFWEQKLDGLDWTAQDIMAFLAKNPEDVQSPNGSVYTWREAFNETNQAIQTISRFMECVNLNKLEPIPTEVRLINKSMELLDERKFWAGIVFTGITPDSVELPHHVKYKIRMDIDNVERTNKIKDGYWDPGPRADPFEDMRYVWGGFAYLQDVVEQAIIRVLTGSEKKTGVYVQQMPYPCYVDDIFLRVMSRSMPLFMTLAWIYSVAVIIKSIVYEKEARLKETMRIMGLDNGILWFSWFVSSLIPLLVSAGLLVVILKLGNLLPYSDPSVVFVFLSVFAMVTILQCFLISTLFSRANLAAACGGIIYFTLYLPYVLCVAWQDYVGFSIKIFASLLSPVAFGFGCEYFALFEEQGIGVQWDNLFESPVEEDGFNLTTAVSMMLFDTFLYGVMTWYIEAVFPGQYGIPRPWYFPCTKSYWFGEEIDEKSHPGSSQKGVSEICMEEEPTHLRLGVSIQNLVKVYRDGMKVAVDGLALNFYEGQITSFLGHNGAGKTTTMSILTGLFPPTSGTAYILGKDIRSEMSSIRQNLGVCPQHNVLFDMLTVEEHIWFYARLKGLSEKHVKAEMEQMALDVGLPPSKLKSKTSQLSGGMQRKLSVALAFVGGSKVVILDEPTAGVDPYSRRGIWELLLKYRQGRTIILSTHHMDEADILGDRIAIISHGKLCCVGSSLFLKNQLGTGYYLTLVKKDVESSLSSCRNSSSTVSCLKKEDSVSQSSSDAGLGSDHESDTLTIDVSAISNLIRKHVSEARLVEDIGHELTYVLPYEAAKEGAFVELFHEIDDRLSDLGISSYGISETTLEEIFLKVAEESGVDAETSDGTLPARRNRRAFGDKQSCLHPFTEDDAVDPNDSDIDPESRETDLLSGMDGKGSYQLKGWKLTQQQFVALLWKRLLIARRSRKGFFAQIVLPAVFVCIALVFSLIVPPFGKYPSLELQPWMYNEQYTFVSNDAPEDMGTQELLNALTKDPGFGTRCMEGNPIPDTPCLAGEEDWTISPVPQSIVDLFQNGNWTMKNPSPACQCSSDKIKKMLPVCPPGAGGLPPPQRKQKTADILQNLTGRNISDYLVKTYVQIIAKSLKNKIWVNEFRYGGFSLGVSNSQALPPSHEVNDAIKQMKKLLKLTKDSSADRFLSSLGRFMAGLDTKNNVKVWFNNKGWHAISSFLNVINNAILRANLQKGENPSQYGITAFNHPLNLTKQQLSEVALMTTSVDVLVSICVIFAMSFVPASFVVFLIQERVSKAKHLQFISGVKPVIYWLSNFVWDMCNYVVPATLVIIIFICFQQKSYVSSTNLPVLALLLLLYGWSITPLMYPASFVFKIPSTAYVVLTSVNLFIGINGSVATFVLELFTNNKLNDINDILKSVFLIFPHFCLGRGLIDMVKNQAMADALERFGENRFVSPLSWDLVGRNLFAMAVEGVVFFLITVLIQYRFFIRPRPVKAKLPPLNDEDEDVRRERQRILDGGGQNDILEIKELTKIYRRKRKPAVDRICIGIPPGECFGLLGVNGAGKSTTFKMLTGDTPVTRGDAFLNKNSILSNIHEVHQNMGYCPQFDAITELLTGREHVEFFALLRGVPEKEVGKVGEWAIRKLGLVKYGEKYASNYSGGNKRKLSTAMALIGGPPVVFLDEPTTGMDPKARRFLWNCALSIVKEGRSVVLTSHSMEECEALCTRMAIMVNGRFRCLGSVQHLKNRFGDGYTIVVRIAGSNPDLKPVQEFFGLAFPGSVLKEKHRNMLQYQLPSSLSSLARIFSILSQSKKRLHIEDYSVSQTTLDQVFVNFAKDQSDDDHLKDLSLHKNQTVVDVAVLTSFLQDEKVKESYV

Km of cholesterol efflux stimulation, mass basis (4 h efflux data, cAMP-treated J774 cells) [1] | Km of cholesterol efflux stimulation, molar basis [1] | % cholesterol efflux/8 hours, No cAMP [2] | % cholesterol efflux/8 hours, Plus cAMP [2] | % cholesterol efflux/4 hours at 0.1 µg/ml [3] | % cholesterol efflux/4 hours at 0.3 µg/ml [3] | % cholesterol efflux/4 hours at 1.0 µg/ml [3] | % cholesterol efflux/4 hours at 3.0 µg/ml [3] | % cholesterol efflux/4 hours at 10 µg/ml [3] | % cholesterol efflux/4 hours at 30 µg/ml [3] | efficiency of cholesterol efflux against apoA-I, mass basis [4] | % cholesterol efflux/8 hours, +cAMP [5] | % cholesterol efflux/8 hours, -cAMP [5] | % cholesterol efflux/4 hours at 0.1 µg/ml [6] | % cholesterol efflux/4 hours at 0.3 µg/ml [6] | % cholesterol efflux/4 hours at 1.0 µg/ml [6] | % cholesterol efflux/4 hours at 3.0 µg/ml [6] | % cholesterol efflux/4 hours at 10 µg/ml [6] | % cholesterol efflux/4 hours at 30 µg/ml [6] | Molecule
3.4 µg/mL | 0.12 | – | – | – | – | – | – | – | – | – | – | – | – | – | – | – | – | – | lipid-free apolipoprotein(apo)A-I (from UniProt P02647 19-267) (ligand)
– | – | 2.59% | 11.4% | 0% | 1.3% | 3.51% | 4.14% | 5.02% | 3.65% | – | – | – | – | – | – | – | – | – | ELRDRLEAWFDLFREFLERF [N1154-4]
– | – | 1.85% | 5.2% | 0.1% | 0.41% | 2.06% | 5.11% | 4.44% | 3.67% | – | – | – | – | – | – | – | – | – | ELRERLEAWFELFREFLERF [N1154-1]

Continued, molecule first:

Molecule | Km of cholesterol efflux stimulation, mass basis (4 h efflux data, cAMP-treated J774 cells) [1] | Km of cholesterol efflux stimulation, molar basis [1] | % cholesterol efflux/8 hours, No cAMP [2] | % cholesterol efflux/8 hours, Plus cAMP [2] | % cholesterol efflux/4 hours at 0.1 µg/ml [3] | % cholesterol efflux/4 hours at 0.3 µg/ml [3] | % cholesterol efflux/4 hours at 1.0 µg/ml [3] | % cholesterol efflux/4 hours at 3.0 µg/ml [3] | % cholesterol efflux/4 hours at 10 µg/ml [3] | % cholesterol efflux/4 hours at 30 µg/ml [3] | efficiency of cholesterol efflux against apoA-I, mass basis [4] | % cholesterol efflux/8 hours, +cAMP [5] | % cholesterol efflux/8 hours, -cAMP [5] | % cholesterol efflux/4 hours at 0.1 µg/ml [6] | % cholesterol efflux/4 hours at 0.3 µg/ml [6] | % cholesterol efflux/4 hours at 1.0 µg/ml [6] | % cholesterol efflux/4 hours at 3.0 µg/ml [6] | % cholesterol efflux/4 hours at 10 µg/ml [6] | % cholesterol efflux/4 hours at 30 µg/ml [6]
ELRDKLEAWFDLFREFLERF [N1154-2] | – | – | 1.47% | 3% | 0.03% | 0.51% | 2.17% | 2.59% | 2.14% | 1.66% | – | – | – | – | – | – | – | – | –
DLRDKLDAWFDLFRDFLDRF [N1154-3] | – | – | 1.61% | 3.29% | 0% | 0.19% | 1.31% | 2.66% | 2.12% | 2.21% | – | – | – | – | – | – | – | – | –
DLRDRLDAWFDLFRDFLDRF [N1154-5] | – | – | 3.06% | 9.88% | 0% | 1.92% | 2.77% | 5.28% | 5.29% | 3.53% | – | – | – | – | – | – | – | – | –
ELREKLEAWFELFREFLERF [SEQ ID NO:2 peptide] | – | – | – | – | – | – | – | – | – | – | ~5 fold | 5.26% | 2.29% | 0.15% | 0.52% | 1.72% | 4.6% | 3.62% | 3.66%
